This passage reports Kd results from US20230295347A1 (published 2023).

In experiment [1] the target is T1, cysteine-rich domain (CRD) of human Fzd4 (UniProt Q9ULV1 40-161).
T1 chain: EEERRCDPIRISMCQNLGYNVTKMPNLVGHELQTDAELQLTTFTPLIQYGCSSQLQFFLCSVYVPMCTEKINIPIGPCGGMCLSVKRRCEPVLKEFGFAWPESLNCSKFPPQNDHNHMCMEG
The experiment in a line: BLI. For orientation: Biolayer interferometry detects binding as a change in optical thickness at a sensor tip.

Experiment [2] deals with T1, cysteine-rich domain (CRD) of human Fzd4. The experiment in a line: SPR; apparent KD, average of four capture concentrations. In general terms: In SPR one partner is held on a chip, and binding of the other changes the refractive index at the surface.

B1: 4SD1-03_LALAPG (bispecific antibody)
heavy: EVQLVESGGGLVKPGGSLRLSCAASGFTFTNYAMSWVRQAPGKGLEWVSAISGSGGSTYYADSVKGRFTISRDDSKNTLYLQMNSLKTEDTAVYYCARATGFGTVVFDYWGQGTLVTVSSASTKGPSVFPLAPSSKSTSGGTAALGCLVKDYFPEPVTVSWNSGALTSGVHTFPAVLQSSGLYSLSSVVTVPSSSLGTQTYICNVNHKPSNTKVDKKVEPKSCDKTHTCPPCPAPEAAGGPSVFLFPPKPKDTLMISRTPEVTCVVVDVSHEDPEVKFNWYVDGVEVHNAKTKPREEQYNSTYRVVSVLTVLHQDWLNGKEYKCKVSNKALGAPIEKTISKAKGQPREPQVYTLPPSREEMTKNQVSLTCLVKGFYPSDIAVEWESNGQPENNYKTTPPVLDSDGSFFLYSKLTVDKSRWQQGNVFSCSVMHEALHNHYTQKSLSLSPGK
light: not shown
In the case of B1, the Kd in experiment [1] is 44.7 nM; in experiment [2], 729 nM.
